Results as given in publication doi:10.1101/854158 (bioRxiv, 2019).

Tests used:
Experiment in all cases: cryo-EM structure
FANCI = biological target: T1, FANCI (human, UniProt Q9NVI1 1-1328)
T1 sequence: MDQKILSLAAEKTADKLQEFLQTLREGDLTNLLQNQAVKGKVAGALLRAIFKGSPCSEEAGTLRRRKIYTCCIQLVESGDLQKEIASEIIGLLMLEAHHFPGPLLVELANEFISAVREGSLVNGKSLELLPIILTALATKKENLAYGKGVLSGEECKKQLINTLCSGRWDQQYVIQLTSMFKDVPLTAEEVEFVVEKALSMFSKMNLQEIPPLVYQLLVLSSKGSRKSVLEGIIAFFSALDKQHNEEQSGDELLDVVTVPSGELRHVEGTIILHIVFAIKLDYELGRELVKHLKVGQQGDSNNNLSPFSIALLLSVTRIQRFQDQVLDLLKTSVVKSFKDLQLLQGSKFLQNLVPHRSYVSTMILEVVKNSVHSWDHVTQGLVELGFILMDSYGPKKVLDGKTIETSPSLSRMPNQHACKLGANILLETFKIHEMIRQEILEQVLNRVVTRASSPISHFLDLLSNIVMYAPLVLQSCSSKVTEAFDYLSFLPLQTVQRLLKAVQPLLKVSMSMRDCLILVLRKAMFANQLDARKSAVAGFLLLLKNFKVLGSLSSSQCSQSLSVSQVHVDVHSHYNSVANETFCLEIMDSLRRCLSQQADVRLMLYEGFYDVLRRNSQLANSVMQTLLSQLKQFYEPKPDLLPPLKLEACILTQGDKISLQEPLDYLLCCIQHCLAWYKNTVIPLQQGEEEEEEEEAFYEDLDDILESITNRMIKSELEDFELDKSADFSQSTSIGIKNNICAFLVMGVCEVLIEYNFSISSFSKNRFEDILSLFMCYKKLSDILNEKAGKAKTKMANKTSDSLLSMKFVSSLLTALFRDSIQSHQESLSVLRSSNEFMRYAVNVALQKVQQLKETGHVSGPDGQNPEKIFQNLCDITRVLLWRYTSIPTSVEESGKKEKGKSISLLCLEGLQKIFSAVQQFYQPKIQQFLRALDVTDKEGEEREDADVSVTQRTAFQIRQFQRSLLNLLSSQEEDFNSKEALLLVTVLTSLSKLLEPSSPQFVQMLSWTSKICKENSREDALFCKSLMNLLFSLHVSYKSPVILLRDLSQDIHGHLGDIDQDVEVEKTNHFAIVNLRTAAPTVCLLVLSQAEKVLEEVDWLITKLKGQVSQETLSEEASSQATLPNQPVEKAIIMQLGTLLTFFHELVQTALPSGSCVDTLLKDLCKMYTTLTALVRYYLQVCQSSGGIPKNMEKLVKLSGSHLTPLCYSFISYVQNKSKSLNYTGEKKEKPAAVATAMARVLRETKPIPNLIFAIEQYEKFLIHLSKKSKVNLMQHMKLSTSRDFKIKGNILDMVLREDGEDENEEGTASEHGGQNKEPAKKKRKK

FANCE = biological target: T2, FANCE (human, UniProt Q9HB96 1-536)
T2 sequence: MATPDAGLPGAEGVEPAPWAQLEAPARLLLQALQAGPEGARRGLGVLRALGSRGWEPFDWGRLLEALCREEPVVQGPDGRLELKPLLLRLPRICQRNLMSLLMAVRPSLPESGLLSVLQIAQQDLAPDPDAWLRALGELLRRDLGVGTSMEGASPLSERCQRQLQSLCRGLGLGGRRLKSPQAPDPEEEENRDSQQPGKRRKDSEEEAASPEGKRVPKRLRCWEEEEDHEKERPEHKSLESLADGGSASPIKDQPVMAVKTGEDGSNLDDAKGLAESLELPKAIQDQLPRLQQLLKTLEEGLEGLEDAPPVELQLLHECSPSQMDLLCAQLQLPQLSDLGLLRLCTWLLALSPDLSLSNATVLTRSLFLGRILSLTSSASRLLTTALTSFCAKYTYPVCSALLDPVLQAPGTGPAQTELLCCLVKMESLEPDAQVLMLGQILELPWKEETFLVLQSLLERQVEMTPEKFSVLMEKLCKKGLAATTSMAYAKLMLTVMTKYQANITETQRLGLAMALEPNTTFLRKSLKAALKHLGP

FANCC = biological target: T3, FANCC (human, UniProt Q00597 1-558)
T3 sequence: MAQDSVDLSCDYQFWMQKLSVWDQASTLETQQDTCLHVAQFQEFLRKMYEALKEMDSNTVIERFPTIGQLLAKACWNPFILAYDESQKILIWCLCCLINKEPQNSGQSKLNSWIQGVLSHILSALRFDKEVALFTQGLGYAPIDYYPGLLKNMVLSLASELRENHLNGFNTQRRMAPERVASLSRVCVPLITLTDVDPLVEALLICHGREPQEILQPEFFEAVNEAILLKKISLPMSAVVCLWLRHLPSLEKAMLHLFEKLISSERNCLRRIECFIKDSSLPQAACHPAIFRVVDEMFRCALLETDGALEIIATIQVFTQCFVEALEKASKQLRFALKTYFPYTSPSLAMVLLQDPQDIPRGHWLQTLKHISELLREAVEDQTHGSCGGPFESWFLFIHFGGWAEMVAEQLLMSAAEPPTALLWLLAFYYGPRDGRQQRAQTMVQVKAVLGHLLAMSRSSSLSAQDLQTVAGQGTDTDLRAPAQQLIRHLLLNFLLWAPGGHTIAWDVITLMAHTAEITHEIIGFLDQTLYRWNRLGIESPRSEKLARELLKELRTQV

Measured: binding result

B1: FANCL (enzyme)
chain: MAVTEASLLRQCPLLLPQNRSKTVYEGFISAQGRDFHLRIVLPEDLQLKNARLLCSWQLRTILSGYHRIVQQRMQHSPDLMSFMMELKMLLEVALKNRQELYALPPPPQFYSSLIEEIGTLGWDKLVYADTCFSTIKLKAEDASGREHLITLKLKAKYPAESPDYFVDFPVPFCASWTPQSSLISIYSQFLAAIESLKAFWDVMDEIDEKTWVLEPEKPPRSATARRIALGNNVSINIEVDPRHPTMLPECFFLGADHVVKPLGIKLSRNIHLWDPENSVLQNLKDVLEIDFPARAILEKSDFTMDCGICYAYQLDGTIPDQVCDNSQCGQPFHQICLYEWLRGLLTSRQSFNIIFGECPYCSKPITLKMSGRKH
binds: all assays above
